Measured values: paper PMC5556061 (Scientific Reports, 2017)
Changes are numbered by the printed parent chain.

Key:
[1] = tested on: Src kinase; test: Co-immunoprecipitation of FAK and Vinculin with CAS after Src inhibition; assay type: cell-based, mouse; conditions: MEFs SrcF treated with 5 µM Saracatinib for 3 h, Vinculin immunoblot
Protocol: Immunoprecipitations from lysates of MEFs or MEFs transformed with SrcF were performed similarly as described above. To immunoprecipitate CAS proteins, protein-A sepharose (GE-Healthcare) and anti-CAS antibody (BD Transduction Laboratories) were used. […] After transferring proteins onto nitrocellulose membrane and blocking, the membranes were incubated with anti CAS, Src, FAK, Vinculin, CAS Tyr12, CAS pTyr165, Src pTyr418 or actin antibody.

[2] = tested on: GST-fused CAS SH3 domain; test: Competitive displacement phage ELISA (EC50); assay type: binding, mouse
Protocol: The EC50 for phage clone 1 ([…], highest affinity) was determined using competitive displacement of the phage bound (5.5·10^10 pfu) to immobilized GST-fused CAS SH3 domain (100 µl of 20 µg/ml per well to yield the best specificity/sensitivity ratio) by serial additions of free GST-fused CAS SH3 domain in TBST (1 µg/ml–800 µg/ml) as previously described. The amount of bound phages was assessed with anti-M13 antibody conjugated to HRP and quantified in a colorimetric assay. Displacement curves were fitted to standard sigmoidal function and EC50 was calculated in Sigmaplot version 11 software using a four-parameter logistic equation. Statistical significance (*p < 0.05, **p < 0.01, ***p < 0.001) was determined on log-transformed data by one-way ANOVA followed by Tukey’s post-hoc test.

[3] = tested on: CAS SH3 Y12E; test: Phage ELISA with CAS SH3 variants; assay type: binding, mouse; conditions: immobilized 5 µg of CAS SH3 variant per well, three independent experiments
Protocol: The relative binding affinities of individual phage clones to GST-CAS SH3 were assessed by ELISA according to the manufacturer’s protocol (Ph.D.™ −12 Phage Display Peptide Library Kit, New England Biolabs). Briefly, a dilution series of phage stocks was prepared in TBS with 0.5% Tween 20 (TBST, 10^15−2 × 10^6 pfu/ml), and phages were scored for their ability to bind immobilized GST-CAS SH3 domain (100 µl of 50 µg/ml per well) in 96-well plate. Bound phages were detected with anti-M13 antibody conjugated to HRP and quantified in a colorimetric assay (ABTS at 415 nm, Invitrogen) using Varioskan Flash (Thermo Scientific). Relative binding affinities (the affinity of the phage clone with the highest affinity was arbitrarily set to 1) were evaluated based on the number of phages required to bind the immobilized GST-fused CAS SH3 domain at 50% saturation. Curves were fitted with the standard sigmoidal function in Sigmaplot. The clones with highest affinities were selected for further analyses (e.g., binding to immobilized 5 µg of CAS SH3 variants per well).

[4] = target: T1, phage-displayed peptide clone 1 (FHAPPSKPPLPK); test: ELISA; competitive displacement of phage clone 1 (5.5·10^10 pfu) bound to immobilised GST-CAS SH3 (100 µl of 20 µg/ml per well) by free GST-CAS SH3 in TBST (1-800 µg/ml); anti-M13-HRP; conditions: one partner purified
T1 construct: 12-residue peptide selected from a degenerate library; also called phage clone 1; source: M13 phage stock (Ph.D.-12 Phage Display Peptide Library, New England Biolabs), selected by panning
T1 peptide: FHAPPSKPPLPK

[5] = target: T2, CAS SH3 domain (GST tag removed, for NMR) (mouse, UniProt Q61140 3-65); test: NMR solution structure; chimeras: peptide fused through a Gly/Ser-rich linker to the C-terminus of the CAS SH3 domain; 450 µM; 25 °C; 25 mM sodium phosphate pH 7.5, 100 mM NaCl, 1 mM TCEP; conditions: both partners purified
T2 construct: Crk-associated substrate (CAS), mouse, SH3 domain; Two additional residues remained at the N-terminus after thrombin cleavage; In the two chimeras this domain carried, on the same chain, the spacer SGGSGSG and the peptide m17 or m18 at its C-terminus; also called free CAS SH3 domain; source: E. coli BL21 (DE3), 15N/13C-labelled, purified (glutathione agarose, thrombin cleavage, size exclusion); …
T2 sequence (looked up): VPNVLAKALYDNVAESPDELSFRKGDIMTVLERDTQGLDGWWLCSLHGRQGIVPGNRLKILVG

[6] = target: T3, GST-fused CAS SH3 domain Y12F (mouse, UniProt Q61140 3-65, Y12F); test: ELISA; phage ELISA: GST-CAS SH3 domain or its variants immobilised in 96-well plate (100 µl of 50 µg/ml; 5 µg per well), dilution series of phage stocks in TBS with 0.5% Tween 20, anti-M13-HRP; relative affinities from phage number at 50% saturation; conditions: one partner purified
T3 construct: Crk-associated substrate (CAS), mouse, SH3 domain with Y12F; also called CAS SH3 Y12F mutant; source: E. coli BL21 (DE3), pGEX-2TK, purified (glutathione agarose); not shown: GST, N-terminal, kept
T3 sequence (looked up): T2 sequence (looked up) with Y10F

[7] = target: T4, CAS SH3 (as used for ITC) (mouse, UniProt Q61140 3-65); test: ITC; 660 µM peptide injected into 60 µM CAS SH3; 25 °C; PBS pH 7.5, 0.05% 2-mercaptoethanol; conditions: both partners purified
T4 construct: Crk-associated substrate (CAS), mouse, SH3 domain; probably the same protein as m2; source: E. coli BL21 (DE3), purified
T4 sequence (looked up): T2 sequence (looked up)

CN1CCN(CCOc2cc(OC3CCOCC3)c3c(Nc4c(Cl)ccc5c4OCO5)ncnc3c2)CC1 [Saracatinib]
binding of CAS to Vinculin [1]: restored the binding of CAS to Vinculin to a similar level as in MEFs

FHAPPSKPPLPK [clone 1]
fold higher affinity than reported for CAS SH3 with FAK-derived peptide ([2]; EC50 of clone 1 compared with previously reported value): ~6 fold
EC50 ([2]; displacement of bound phage (5.5·10^10 pfu) from immobilized GST-CAS SH3 (100 µl of 20 µg/ml per well) by free GST-fused CAS SH3 (1-800 µg/ml) in TBST, anti-M13-HRP, colorimetric, seven independent experiments, read-out: EC50 for clone 1 binding): 0.363 µM

AHTPPPKPTRPP [clone 16]
effect of Y12E mutation on ligand binding [3]: complete disruption of ligand binding

TMTPPPKPPRLI [clone 10]
effect of Y12E mutation on ligand binding [3]: complete disruption of ligand binding

B1: GST-fused CAS SH3 domain (domain or fragment, mouse, UniProt Q61140 3-65, looked up)
chain: T2 sequence (looked up)
notes: Crk-associated substrate (CAS), mouse, SH3 domain; also called GST-CAS SH3; GST-SH3; source: E. coli BL21 (DE3), pGEX-2TK, purified (glutathione agarose); not shown: GST, N-terminal, kept
EC50 [4]: 0.363 µM

B2: Vinculin-derived peptide, residues 854-870 (peptide part of the CAS-Vinculin chimera) (peptide, UniProt Q64727 854-870, looked up)
peptide: LTDELAPPKPPLPEGEV
notes: Vinculin, mouse, residues 854-870; Stood on one chain with the CAS SH3 domain: SH3 domain, spacer SGGSGSG, peptide; also called Vinculin peptide; Vinculin extended peptide; source: E. coli BL21 (DE3), as the C-terminal part of the CAS SH3 chimera, purified
binding result [5]: binds

B3: phage-displayed peptide clone 16 (AHTPPPKPTRPP) (peptide)
peptide: AHTPPPKPTRPP
notes: 12-residue peptide selected from a degenerate library; also called phage clone 16; source: M13 phage stock (Ph.D.-12 Phage Display Peptide Library, New England Biolabs), selected by panning
fold decrease in affinity against CAS WT [6]: 37 fold

B4: PTP-PEST-derived peptide, residues 327-343 (peptide part of the CAS-PTP-PEST chimera) (peptide, UniProt P35831 327-343, looked up)
peptide: EKQDSPPPKPPRTRSCL
notes: PTP-PEST, mouse, residues 327-343; Stood on one chain with the CAS SH3 domain: SH3 domain, spacer SGGSGSG, peptide; also called PTP-PEST peptide; PTP-PEST extended peptide; source: E. coli BL21 (DE3), as the C-terminal part of the CAS SH3 chimera, purified
binding result [5]: binds

B5: synthetic octapeptide APPKPPLP (binding site of CAS on Vinculin) (peptide)
peptide: APPKPPLP
notes: also called Vinculin core peptide (859-866); source: synthetic peptide
Kd [7]: 15.7 µM
stoichiometry N [7]: 1

B6: phage-displayed peptide clone 10 (TMTPPPKPPRLI) (peptide)
peptide: TMTPPPKPPRLI
notes: 12-residue peptide selected from a degenerate library; also called phage clone 10; source: M13 phage stock (Ph.D.-12 Phage Display Peptide Library, New England Biolabs), selected by panning
fold decrease in affinity against CAS WT [6]: 2 fold

PPSKPPRP (source: synthetic peptide) [synthetic octapeptide PPSKPPRP]
Kd [7]: 15.3 µM
stoichiometry N [7]: 1

PPSKPPLP (source: synthetic peptide) [synthetic octapeptide PPSKPPLP]
Kd [7]: 46.6 µM
stoichiometry N [7]: 1

PPPKPPRL (source: synthetic peptide) [synthetic octapeptide PPPKPPRL]
Kd [7]: 5.29 µM
stoichiometry N [7]: 1
